Assay results: patent US20220089683A1 (ACCELERON PHARMA, published 2022)

T1: activin B (UniProt P09529 293-407)
T1 sequence (looked up): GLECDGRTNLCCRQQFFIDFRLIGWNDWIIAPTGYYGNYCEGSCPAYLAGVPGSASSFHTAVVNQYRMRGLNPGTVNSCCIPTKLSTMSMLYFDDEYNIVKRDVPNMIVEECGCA

T2: activin A (UniProt P08476 311-426)
T2 sequence (looked up): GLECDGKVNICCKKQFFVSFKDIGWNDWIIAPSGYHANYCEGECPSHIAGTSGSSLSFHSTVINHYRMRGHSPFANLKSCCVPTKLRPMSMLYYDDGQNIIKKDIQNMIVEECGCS

B1: GDF11 (ligand, UniProt O95390 299-407, looked up)
chain: NLGLDCDEHSSESRCCRYPLTVDFEAFGWDWIIAPKRYKANYCSGQCEYMFMQKYPHTHLVQQANPRGSAGPCCTPTKMSPINMLYFNDKQQIIYGKIPGMVVDRCGCS
notes: also called BMP11

Experiments:
ActRIIA-mFc = target: T3, ActRIIA-mFc (human, UniProt P27037 21-135); test: SPR (Biacore), ligand amine-coupled on CM5 chip, fusion protein loaded in solution
T3 construct: also called hActRIIA-mFc; not shown: mouse Fc domain
T3 sequence (P27037 21-135): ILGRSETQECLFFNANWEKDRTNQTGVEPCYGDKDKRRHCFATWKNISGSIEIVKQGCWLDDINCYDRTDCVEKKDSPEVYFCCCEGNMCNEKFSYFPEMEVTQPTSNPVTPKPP
Procedure: GDF-11 or activin A were immobilized on a Biacore™ CM5 chip using standard amine-coupling procedure. ActRIIA-hFc and ActRIIA-mFc proteins were loaded onto the system, and binding was measured.

activin B = target: T1, activin B; test: SPR (Biacore)
GDF11 = target: B1; test: SPR (Biacore)
activin A = target: T2, activin A; test: SPR (Biacore)

binding result (ActRIIA-mFc) | Kd (activin B) [nM] | Kd (GDF11) [nM] | Kd (activin A) [nM] | Binder
binds | – | – | – | B1
– | 0.012 | 0.036 | 0.016 | ActRIIB(20-134)-hFc (Fc fusion, also called ActRIIB-hFc; hActRIIB-hFc) GRGEAETRECIYYNANWELERTNQSGLERCEGEQDKRLHCYASWRNSSGTIELVKKGCWLDDFNCYDRQECVATEENPQVYFCCCEGNFCNERFTHLPEAGGPEVTYEPPPTAPTGGGTHTCPPCPAPELLGGPSVFLFPPKPKDTLMISRTPEVTCVVVDVSHEDPEVKFNWYVDGVEVHNAKTKPREEQYNSTYRVVSVLTVLHQDWLNGKEYKCKVSNKALPVPIEKTISKAKGQPREPQVYTLPPSREEMTKNQVSLTCLVKGFYPSDIAVEWESNGQPENNYKTTPPVLDSDGSFFLYSKLTVDKSRWQQGNVFSCSVMHEALHNHYTQKSLSLSPGK
